Like-named read-outs stand apart in the source and are kept apart here.
Legend:
Experiment in all cases: pull-down
GST–Sec22p [1] = target: T1, GST–Sec22p (yeast, UniProt P22214)
T1 sequence: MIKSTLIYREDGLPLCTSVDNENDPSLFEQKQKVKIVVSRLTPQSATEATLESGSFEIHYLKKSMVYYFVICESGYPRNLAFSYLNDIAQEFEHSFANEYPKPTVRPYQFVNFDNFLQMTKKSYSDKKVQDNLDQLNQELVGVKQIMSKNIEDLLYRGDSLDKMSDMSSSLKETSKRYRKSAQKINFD

[2] = target: T2, heterodimeric GST–Sed5p–His10-Sly1p complex bound to beads (S. cerevisiae, UniProt Q01590;P22213)
T2 sequence 1: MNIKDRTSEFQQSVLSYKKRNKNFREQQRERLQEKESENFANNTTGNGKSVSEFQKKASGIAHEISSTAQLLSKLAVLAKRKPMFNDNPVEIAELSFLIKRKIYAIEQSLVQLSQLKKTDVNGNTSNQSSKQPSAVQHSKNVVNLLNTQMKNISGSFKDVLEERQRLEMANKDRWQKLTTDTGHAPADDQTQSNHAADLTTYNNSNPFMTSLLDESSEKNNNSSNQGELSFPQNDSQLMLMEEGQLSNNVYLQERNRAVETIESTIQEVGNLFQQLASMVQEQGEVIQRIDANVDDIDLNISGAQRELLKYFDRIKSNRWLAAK
T2 sequence 2: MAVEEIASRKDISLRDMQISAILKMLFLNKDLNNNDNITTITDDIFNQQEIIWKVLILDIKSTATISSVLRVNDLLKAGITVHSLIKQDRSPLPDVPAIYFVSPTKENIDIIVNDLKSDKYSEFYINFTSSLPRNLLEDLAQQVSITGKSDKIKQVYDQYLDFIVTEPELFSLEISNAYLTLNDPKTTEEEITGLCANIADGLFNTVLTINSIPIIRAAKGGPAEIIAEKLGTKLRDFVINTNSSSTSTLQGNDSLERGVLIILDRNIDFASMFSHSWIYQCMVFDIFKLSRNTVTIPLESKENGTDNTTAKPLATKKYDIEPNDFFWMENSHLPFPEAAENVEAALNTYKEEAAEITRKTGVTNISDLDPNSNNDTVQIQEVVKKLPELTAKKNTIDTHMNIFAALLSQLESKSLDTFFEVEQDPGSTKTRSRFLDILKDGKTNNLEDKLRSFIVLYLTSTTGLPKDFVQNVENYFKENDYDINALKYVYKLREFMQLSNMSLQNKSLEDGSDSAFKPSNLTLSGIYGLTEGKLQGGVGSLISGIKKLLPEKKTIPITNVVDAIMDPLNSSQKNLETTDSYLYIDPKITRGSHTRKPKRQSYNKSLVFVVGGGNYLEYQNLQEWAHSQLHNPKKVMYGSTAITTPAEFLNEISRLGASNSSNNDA

[3] = target: T3, GST–Sed5p (entire cytosolic region) (S. cerevisiae, UniProt Q01590 1-324)
T3 sequence: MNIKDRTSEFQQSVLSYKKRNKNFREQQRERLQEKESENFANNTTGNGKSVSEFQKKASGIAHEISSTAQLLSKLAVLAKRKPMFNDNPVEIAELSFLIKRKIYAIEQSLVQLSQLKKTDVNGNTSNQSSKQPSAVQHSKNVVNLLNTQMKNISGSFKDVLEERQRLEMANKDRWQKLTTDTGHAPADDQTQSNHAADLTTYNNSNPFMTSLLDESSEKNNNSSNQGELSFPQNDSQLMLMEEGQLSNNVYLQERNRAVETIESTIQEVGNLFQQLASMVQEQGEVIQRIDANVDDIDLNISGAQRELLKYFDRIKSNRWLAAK

[4] = target: T4, preassembled SNARE complex of GST–Sec22p, Sed5p, Bos1p and Bet1p (yeast, UniProt P22214;Q01590;P25385;P22804)
T4 sequence 1: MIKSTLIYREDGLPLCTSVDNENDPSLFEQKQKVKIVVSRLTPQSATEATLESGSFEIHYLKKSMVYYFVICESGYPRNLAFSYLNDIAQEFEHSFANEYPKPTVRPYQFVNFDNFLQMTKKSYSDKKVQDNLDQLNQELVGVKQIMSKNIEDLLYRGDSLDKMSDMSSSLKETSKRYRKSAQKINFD
T4 sequence 2: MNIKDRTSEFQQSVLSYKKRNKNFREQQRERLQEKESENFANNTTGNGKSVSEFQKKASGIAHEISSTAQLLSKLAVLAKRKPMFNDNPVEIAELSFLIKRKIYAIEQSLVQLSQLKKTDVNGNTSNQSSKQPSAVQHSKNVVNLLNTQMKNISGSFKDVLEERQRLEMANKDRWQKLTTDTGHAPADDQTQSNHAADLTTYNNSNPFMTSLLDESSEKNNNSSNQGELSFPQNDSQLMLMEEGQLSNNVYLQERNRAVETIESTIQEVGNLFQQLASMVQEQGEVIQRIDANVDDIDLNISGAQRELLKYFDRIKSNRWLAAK
T4 sequence 3: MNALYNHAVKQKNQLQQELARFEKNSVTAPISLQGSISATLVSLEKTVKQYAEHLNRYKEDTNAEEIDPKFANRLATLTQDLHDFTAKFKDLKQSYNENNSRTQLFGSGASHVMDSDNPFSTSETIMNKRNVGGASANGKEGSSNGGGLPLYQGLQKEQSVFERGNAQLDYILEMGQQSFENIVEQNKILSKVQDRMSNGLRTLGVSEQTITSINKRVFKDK
T4 sequence 4: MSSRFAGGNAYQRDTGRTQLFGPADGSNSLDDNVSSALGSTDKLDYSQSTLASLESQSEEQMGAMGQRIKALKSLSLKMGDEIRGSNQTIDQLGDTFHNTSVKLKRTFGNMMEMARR

[5] = target: preassembled SNARE complex of GST–Sec22p, Sed5p, Bos1p and Bet1p with Sly1p (yeast | S. cerevisiae, UniProt P22214;Q01590;P25385;P22804;P22213)
GST–Sec22p [6] = target: T1, GST–Sec22p; remark: listed apart in the source
GST–Sec22p [7] = target: T1, GST–Sec22p; remark: listed apart in the source
GST–Sec22p [8] = target: T1, GST–Sec22p; remark: listed apart in the source

B1: His6-Bet1p lacking the COOH-terminal membrane anchor (domain or fragment)
chain: MSSRFAGGNAYQRDTGRTQLFGPADGSNSLDDNVSSALGSTDKLDYSQSTLASLESQSEEQMGAMGQRIKALKSLSLKMGDEIRGSNQTIDQLGDTFHNTSVKLKRTFGNMMEMARR
stoichiometry of Sly1p–Sed5p–Bos1p–Sec22p–Bet1p in the isolated complex (GST–Sec22p [1]): 1.3 molar ratio (GST–Sec22p = 1.4)
stoichiometry N [2]: 1.3 per Sed5p
stoichiometry N [3]: 1.5 per Sed5p

B2: His6-Sec17p (full length) (natural protein)
chain: MSDPVELLKRAEKKGVPSSGFMKLFSGSDSYKFEEAADLCVQAATIYRLRKELNLAGDSFLKAADYQKKAGNEDEAGNTYVEAYKCFKSGGNSVNAVDSLENAIQIFTHRGQFRRGANFKFELGEILENDLHDYAKAIDCYELAGEWYAQDQSVALSNKCFIKCADLKALDGQYIEASDIYSKLIKSSMGNRLSQWSLKDYFLKKGLCQLAATDAVAAARTLQEGQSEDPNFADSRESNFLKSLIDAVNEGDSEQLSEHCKEFDNFMRLDKWKITILNKIKESIQQQEDDLL
stoichiometry N [4]: 3.3 Sec17p per Sed5p
stoichiometry N [5]: 2.7 Sec17p per Sed5p

B3: His10-Sly1p (NH2-terminally His10-tagged full-length Sly1p) (natural protein)
chain: MAVEEIASRKDISLRDMQISAILKMLFLNKDLNNNDNITTITDDIFNQQEIIWKVLILDIKSTATISSVLRVNDLLKAGITVHSLIKQDRSPLPDVPAIYFVSPTKENIDIIVNDLKSDKYSEFYINFTSSLPRNLLEDLAQQVSITGKSDKIKQVYDQYLDFIVTEPELFSLEISNAYLTLNDPKTTEEEITGLCANIADGLFNTVLTINSIPIIRAAKGGPAEIIAEKLGTKLRDFVINTNSSSTSTLQGNDSLERGVLIILDRNIDFASMFSHSWIYQCMVFDIFKLSRNTVTIPLESKENGTDNTTAKPLATKKYDIEPNDFFWMENSHLPFPEAAENVEAALNTYKEEAAEITRKTGVTNISDLDPNSNNDTVQIQEVVKKLPELTAKKNTIDTHMNIFAALLSQLESKSLDTFFEVEQDPGSTKTRSRFLDILKDGKTNNLEDKLRSFIVLYLTSTTGLPKDFVQNVENYFKENDYDINALKYVYKLREFMQLSNMSLQNKSLEDGSDSAFKPSNLTLSGIYGLTEGKLQGGVGSLISGIKKLLPEKKTIPITNVVDAIMDPLNSSQKNLETTDSYLYIDPKITRGSHTRKPKRQSYNKSLVFVVGGGNYLEYQNLQEWAHSQLHNPKKVMYGSTAITTPAEFLNEISRLGASNSSNNDA
stoichiometry of Sly1p–Sed5p–Bos1p–Sec22p–Bet1p in the isolated complex [4]: 1 molar ratio (GST–Sec22p = 1.4)
stoichiometry N [3]: 1.2 per Sed5p

B4: preformed Sed5p–Sly1p heterodimer in solution (His-Sly1p–His-Sed5p) (complex)
chain 1: MAVEEIASRKDISLRDMQISAILKMLFLNKDLNNNDNITTITDDIFNQQEIIWKVLILDIKSTATISSVLRVNDLLKAGITVHSLIKQDRSPLPDVPAIYFVSPTKENIDIIVNDLKSDKYSEFYINFTSSLPRNLLEDLAQQVSITGKSDKIKQVYDQYLDFIVTEPELFSLEISNAYLTLNDPKTTEEEITGLCANIADGLFNTVLTINSIPIIRAAKGGPAEIIAEKLGTKLRDFVINTNSSSTSTLQGNDSLERGVLIILDRNIDFASMFSHSWIYQCMVFDIFKLSRNTVTIPLESKENGTDNTTAKPLATKKYDIEPNDFFWMENSHLPFPEAAENVEAALNTYKEEAAEITRKTGVTNISDLDPNSNNDTVQIQEVVKKLPELTAKKNTIDTHMNIFAALLSQLESKSLDTFFEVEQDPGSTKTRSRFLDILKDGKTNNLEDKLRSFIVLYLTSTTGLPKDFVQNVENYFKENDYDINALKYVYKLREFMQLSNMSLQNKSLEDGSDSAFKPSNLTLSGIYGLTEGKLQGGVGSLISGIKKLLPEKKTIPITNVVDAIMDPLNSSQKNLETTDSYLYIDPKITRGSHTRKPKRQSYNKSLVFVVGGGNYLEYQNLQEWAHSQLHNPKKVMYGSTAITTPAEFLNEISRLGASNSSNNDA
chain 2: MNIKDRTSEFQQSVLSYKKRNKNFREQQRERLQEKESENFANNTTGNGKSVSEFQKKASGIAHEISSTAQLLSKLAVLAKRKPMFNDNPVEIAELSFLIKRKIYAIEQSLVQLSQLKKTDVNGNTSNQSSKQPSAVQHSKNVVNLLNTQMKNISGSFKDVLEERQRLEMANKDRWQKLTTDTGHAPADDQTQSNHAADLTTYNNSNPFMTSLLDESSEKNNNSSNQGELSFPQNDSQLMLMEEGQLSNNVYLQERNRAVETIESTIQEVGNLFQQLASMVQEQGEVIQRIDANVDDIDLNISGAQRELLKYFDRIKSNRWLAAK
stoichiometry N (GST–Sec22p [6]): 0.44 Sed5p per Sec22p
stoichiometry N (GST–Sec22p [7]): 0.99 Sed5p per Sec22p
stoichiometry N (GST–Sec22p [8]): 0.3 Sed5p per Sec22p

From PMC2173853 (The Journal of Cell Biology, 2002)
